Patent publication US20230174630A1 (UNIVERSITY OF BRITISH COLUMBIA, published 2023)

B1: MYCL20H-14H1-14K2 (scFv)
scFv: MAIVMTQTPSSKSVPVGGSVTINCQASESVYSNNRLSWYQQKPGQPPKLLIYYASTLESGVPSRFKGSGFGTHFTLTISGAQCDDAATYYCAGWRGARTDGVDFGGGTEVVVKGSTGGGGSGKPGSGEGGGGSQEQLEESGGDLVKPEGSLTLTCTASGFSFSSNYVMCWVRQAPGKGLEWVACIWFAGIVDTTYYATWAKGRFTISKTSSTTVTLQMTSLTAADTATYFCARNPVGSVNLWGQGTLVTVSSGSGEQKLISEEDL
notes: Intrabody: VL-20 aa linker-VH-GSG-MYC tag
B2: YPTL-14H1-14K2 (scFv)
scFv: MQEQLEESGGDLVKPEGSLTLTCTASGFSFSSNYVMCWVRQAPGKGLEWVACIWFAGIVDTTYYATWAKGRFTISKTSSTTVTLQMTSLTAADTATYFCARNPVGSVNLWGQGTLVTVSSGGGGSGGGGSGGGGSVMTQTPSSKSVPVGGSVTINCQASESVYSNNRLSWYQQKPGQPPKLLIYYASTLESGVPSRFKGSGFGTHFTLTISGAQCDDAATYYCAGWRGARTDGVDFGGGTEVVVKDYKDDDDKRWRKSHSSSYTPLSGSTYPEGRH
B3: YPTL-2F7 (scFv)
scFv: MDVKLVESGGGLVKLGGSLKLSCAASGFTFSSYYMSWVRQTPEKRLELVATINSNGGSTYYPDTVKGRITISRDNAKNTLQLQMSSLRSEDTALYYCVRQNYEGAYWGQGTLVTVSAGGGGSGGGGSGGGGSDVLMTQTPLSLPVTLGDQASISCRSSQSIVHSNGNTYLEWYLQKPGQSPKLLIYKVSNRFSGVPDRFSGSGSGTDFTLKISRVEAEDLGVYYCFQSSHVPWTFGGGTKLEIKDYKDDDDKRWRKSHSSSYTPLSGSTYPEGRH

Target: T1, endogenous wild type TDP-43 of HEK293 cells (human, UniProt Q13148 1-414)
T1 construct: whole, on cells; Intracellular endogenous protein: nuclear in unstressed cells; also called endogenous, nuclear WT TDP-43; normal nuclear TDP-43
Assay: co-localization immunocytochemistry, intrabody expressed in HEK293 cells

T1 sequence (Q13148 whole entry): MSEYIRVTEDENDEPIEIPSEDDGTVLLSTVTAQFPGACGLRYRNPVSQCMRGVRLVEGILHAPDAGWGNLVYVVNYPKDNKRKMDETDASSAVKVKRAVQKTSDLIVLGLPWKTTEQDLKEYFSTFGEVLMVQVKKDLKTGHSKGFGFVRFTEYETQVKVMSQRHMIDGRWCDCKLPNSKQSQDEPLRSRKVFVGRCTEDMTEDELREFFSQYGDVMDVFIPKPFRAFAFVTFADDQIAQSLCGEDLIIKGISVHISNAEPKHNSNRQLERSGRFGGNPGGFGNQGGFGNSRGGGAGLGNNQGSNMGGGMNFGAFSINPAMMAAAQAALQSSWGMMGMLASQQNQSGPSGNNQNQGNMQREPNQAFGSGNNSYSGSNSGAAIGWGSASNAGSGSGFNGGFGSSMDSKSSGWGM

Binding result, no binding:
B1
B2
B3
